# According to publication doi:10.1101/2022.06.18.496527 (2022):
# B1: OsExo70F2^Δ83 (residues 84 to 689) (domain or fragment)
# chain: ISAAAFDAAEQLIQVWDGTPEALVFEATEDEVAEYLSAVDVAIEHLARGSGGGAGGAGSSSSSTAGRAGVAVQLAMARLEEELRHLMVRHAVPLDPTGLFFSLRRLSLGSMDDLDTSSEFDAATPHSIDVAPETARGGPLVNPFEDQVFDPVRPEAVDDLRAIADRMARAGYSRELADAYCGIRRDLLDEYLSALGVERLSIDEVQRIEWKHLNDKMKKWVQAVKTVVRVLLAGERRLCDQVLSVSDELREECFIESTKGCIMQILSFGDAVAVCPRSPEKLSRILDMYEALAEVIPEMKDLCLGSSGDGVISDVQANLDRLGDAIRGTLFEFGKVLQLESSRRAMTAGEIHPMTRYVMNYLRLLVVYSDTLDALLDDNADDQIDLARAEDQDQEHLESMTPLGKRLLKLISYLEANLEEKSKLYEDSALECIFSMNNLLYIVQKVRDSELGKILGDHWVKRRNGKIRQYSKSYLRISWMKVLSFLKDDGHGSGSGSSSGSGSGHSSSRMSIKEKFKNFNLAFEEIYRNQTTWKVPDPQLREELKISISENVIPAYRAFLGRYGSQVDGGRNSGKYIKYTPEDLESQLSDLFEGAPGPANHSRRRT
# Biological target: AVR-Pii effector domain (residues 20 to 70), purified (Magnaporthe oryzae)
# Assay: ITC
binder,measurement,value
B1,Kd,< 1 nM
